{"source": "paper PMC3268813", "key": {"[1]": {"target": "synthetic phospho-S463 CRN2 coiled coil peptide (human) (UniProt Q9ULV4)", "assay": "SEC-MALS"}, "[2]": {"target": "synthetic phospho-S463 CRN2 coiled coil peptide (human) (UniProt Q9ULV4)", "assay": "small-angle X-ray scattering"}}}
{"substance": "synthetic phospho-S463 CRN2 coiled coil peptide (from UniProt Q9ULV4 435-474)", "values": [{"measurement": "stoichiometry N", "setting": "[1]", "result": 3}, {"measurement": "stoichiometry N", "setting": "[2]", "result": 3}]}
